In the supplement of paper PMC12338614:
± gives the uncertainty stated by the source.

B1: library; numbered along this chain (parent)
chain: MEVVDPQQLGMFTEGELMSVGMDTFIHRIDSTEVIYQPRRKRAKLIGKYLMGDLLGEGSYGKVKEVLDSETLCRRAVKILKKKKLRRIPNGEANVKKEIQLLRRLRHKNVIQLVDVLYNEEKQKMYMVMEYCVCGMQEMLDSVPEKRFPVCQAHGYFCQLIDGLEYLHSQGIVHKDIKPGNLLLTTGGTLKISDLGVAEALHPFAADDTCRTSQGSPAFQPPEIANGLDTFSGFKVDIWSAGVTLYNITTGLYPFEGDNIYKLFENIGKGSYAIPGDCGPPLSDLLKGMLEYEPAKRFSIRQIRQHSWFRKKHPPAEAPVPIPPSPDTKDRWRSMTVVPYLEDLHGADEDEDLFDIEDDIIYTQDFTVPGQVPEEEASHNGQRRGLPKAVCMNGTEAAQLSTKSRAEGRAPNPARKACSASSKIRRLSACKQQ

Variants of: B1
Assay: STK11 functional score (HeLa growth suppression), rescaled enrichment; synonymous median = 1, nonsense median = 0 (normalised score)
Details: with HeLa; variant type: missense
In short: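 Functional scores are post/pre-selection log ratios corrected to wild type, rescaled to synonymous and nonsense medians, merged over codons and replicate transfections, and given bootstrapped error. They come from POPCode libraries of codon-optimised STK11 integrated by Bxb1 at an AAVS1 landing pad in HeLa, three regions each transfected three times, with BFP-negative, mCherry-positive integrants sorted by FACS and tiled gDNA amplicons sequenced on NextSeq.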

| Variant | STK11 functional score |
| --- | --- |
| L183P | 0.221 ± 0.35 |
| V143D | 1.46 ± 0.33 |
| V197M | -0.102 ± 0.17 |
| A429P | 0.559 ± 0.56 |
| A429R | 1.5 ± 0.17 |
| A429G | 1.12 ± 0.33 |
| A429L | 1.48 ± 0.15 |
| D284E | 1 ± 0.29 |
| Q305G | 1.52 ± 0.3 |
| I274H | 0.363 ± 0.074 |
| A316Q | 1.53 ± 0.15 |
| H306G | 0.475 ± 0.077 |
| H306C | 0.975 ± 0.1 |
| H306Q | 0.514 ± 0.21 |
| H306T | 1.54 ± 0.19 |
| G52A | 0.893 ± 0.16 |
| C158H | 1.53 ± 0.32 |
| S299V | 0.978 ± 0.26 |
| S299L | 0.649 ± 0.57 |
| V66H | 1.37 ± 0.19 |
| V150C | 0.762 ± 0.23 |
| L400G | 1.48 ± 0.14 |
| L400N | 1.63 ± 0.31 |
| I111Q | 1.66 ± 0.17 |

| Variant | STK11 functional score |
| --- | --- |
| R39T | 0.548 ± 0.26 |
| G135P | 1.7 ± 0.27 |
| K191V | 1.19 ± 0.29 |
| D30Y | -0.0227 ± 0.33 |
| I35P | 1.69 ± 0.16 |
| D207E | 1.48 ± 0.51 |
| Y49D | 0.131 ± 0.35 |
| Y49H | 1.11 ± 0.48 |
| P315G | 1.29 ± 0.39 |
| K146R | 1.58 ± 0.39 |
| D141P | -0.241 ± 0.11 |
| D141M | 1.22 ± 0.14 |
| V20D | 1.59 ± 0.14 |
| V20T | 1.6 ± 0.17 |
| V20A | 1.29 ± 0.21 |
| K84P | 1.52 ± 0.45 |
| C278E | 1.66 ± 0.21 |
| C278P | 1.22 ± 0.19 |
| M22F | 1 ± 0.23 |
| M22C | 1.21 ± 0.38 |
| A218T | 0.88 ± 0.47 |
| E293I | 1.16 ± 0.096 |
| E293R | 0.395 ± 0.12 |
| F231H | 0.765 ± 0.42 |

| Variant | STK11 functional score |
| --- | --- |
| F231V | 0.867 ± 0.094 |
| Q170P | 0.0405 ± 0.082 |
| N259A | -0.00474 ± 0.089 |
| N259L | 1.26 ± 0.31 |
| N259S | 1.34 ± 0.38 |
| L80G | 0.429 ± 0.082 |
| Q137R | 0.73 ± 0.12 |
| K78Q | 1.1 ± 0.12 |
| V236C | 1.44 ± 0.47 |
| R310V | 1.43 ± 0.15 |
| A347S | 1.42 ± 0.18 |
| A347Y | 1.34 ± 0.44 |
| I248P | -0.0931 ± 0.13 |
| T250Y | 1.31 ± 0.65 |
| T250V | 1.24 ± 0.14 |
| G188F | 0.918 ± 0.27 |
| G188V | 0.388 ± 0.11 |
| A241C | 1.21 ± 0.1 |
| C210K | 1.3 ± 0.49 |
| R426T | 1.17 ± 0.53 |
| K329D | 1.56 ± 0.27 |
| C391H | 1.46 ± 0.11 |
| R40S | 0.887 ± 0.15 |
| R333P | 1.64 ± 0.23 |

| Variant | STK11 functional score |
| --- | --- |
| E291H | 1.17 ± 0.2 |
| L190S | 0.0644 ± 0.18 |
| I161W | -0.296 ± 0.057 |
| I161R | -0.0321 ± 0.14 |
| V77Q | 0.597 ± 0.56 |
| P319W | 0.513 ± 0.25 |
| H107S | 0.803 ± 0.17 |
| V243C | 1 ± 0.099 |
| A295G | 1.37 ± 0.68 |
| A295N | 1.24 ± 0.13 |
| R75M | 0.00187 ± 0.29 |
| Y131V | 0.785 ± 0.087 |
| Y131H | 1.2 ± 0.44 |
| T212A | 1.41 ± 0.17 |
| E374C | 1.51 ± 0.19 |
| E374V | 0.836 ± 0.41 |
| L285P | -0.13 ± 0.21 |
| I360R | 0.694 ± 0.27 |
| P373Q | 1.55 ± 0.27 |
| T367V | 1.58 ± 0.26 |
| I356W | 1.66 ± 0.25 |
| I356D | 1.27 ± 0.43 |
| I356E | 1.62 ± 0.14 |
| T71V | 1.04 ± 0.34 |

| Variant | STK11 functional score |
| --- | --- |
| Q123P | 0.451 ± 0.33 |
| Q123D | 0.981 ± 0.62 |
| Q7A | 1 ± 0.43 |
| E98Q | 0.273 ± 0.089 |
| L45M | 1.25 ± 0.08 |
| L45S | 1.36 ± 0.14 |
| L45K | 1.53 ± 0.23 |
| L45G | 1.25 ± 0.18 |
| D115W | 0.727 ± 0.26 |
| A377S | 1.24 ± 0.24 |
| H27R | 1.03 ± 0.18 |
| H27Q | 0.792 ± 0.18 |
| R106L | 1.15 ± 0.081 |
| S169T | 1.22 ± 0.74 |
| S169V | 0.428 ± 0.21 |
| F148I | 1.31 ± 0.41 |
| K82S | 1.15 ± 0.26 |
| K82E | 1.36 ± 0.75 |
| M139P | 0.179 ± 0.18 |
| M335K | 1.03 ± 0.7 |
| T185F | 0.993 ± 0.24 |
| K388M | 1.39 ± 0.2 |
| K388Y | 1.07 ± 0.35 |
| P222L | 0.281 ± 0.091 |

| Variant | STK11 functional score |
| --- | --- |
| C418V | 1.62 ± 0.19 |
| E199F | 1.37 ± 0.25 |
| E199P | 0.87 ± 0.76 |
| D343L | 0.93 ± 0.25 |
| P179H | -0.0435 ± 0.096 |
| V133L | 0.982 ± 0.085 |
| K269W | 0.728 ± 0.12 |
| E33N | 1.33 ± 0.15 |
| P144A | 1.08 ± 0.21 |
| E120A | 0.817 ± 0.13 |
| M392L | 1.57 ± 0.29 |
| A43Q | -0.492 ± 0.15 |
| P323N | 1.53 ± 0.15 |
| P323A | 1.15 ± 0.28 |
| K108P | 1.35 ± 0.26 |
| L282R | 0.128 ± 0.1 |
| Y156T | 1.13 ± 0.67 |
| E65H | 1.36 ± 0.21 |
| L286S | 0.0276 ± 0.19 |
| R297G | -0.132 ± 0.076 |
| R297A | 0.147 ± 0.078 |
| I267M | 0.815 ± 0.11 |
| L113W | 0.222 ± 0.11 |
| E256C | 0.541 ± 0.33 |

| Variant | STK11 functional score |
| --- | --- |
| E256S | 1.36 ± 0.4 |
| Q152L | 0.195 ± 0.69 |
| Q152V | 1.19 ± 0.27 |
| G276C | 1.2 ± 0.65 |
| D350Q | 1.49 ± 0.19 |
| R304S | 0.843 ± 0.6 |
| R304G | 1.24 ± 0.36 |
| R415Y | 1.49 ± 0.16 |
| I361H | 1.21 ± 0.46 |
| I361S | 1.46 ± 0.16 |
| F204G | 1.3 ± 0.17 |
| R409Y | 1.53 ± 0.19 |
| R409I | 1.24 ± 0.2 |
| K124Q | 1.61 ± 0.18 |
| K124G | 1.04 ± 0.36 |
| I224R | 1.04 ± 0.17 |
| I224Q | 0.698 ± 0.65 |
| N94V | 0.637 ± 0.13 |
| N94D | 1.31 ± 0.14 |
| K262R | 1.18 ± 0.47 |
| N226H | 0.561 ± 0.47 |
| C151N | 0.808 ± 0.43 |
| T336P | 1.18 ± 0.18 |
